Data as given in PMC8546961, “Cofactor Specificity of Glucose-6-Phosphate Dehydrogenase Isozymes in Pseudomonas putida Reveals a General Principle Underlying Glycolytic Strategies in Bacteria” (mSystems, 2021).
Where two headings read alike, the source gives them in different places.

T1: G6PDH-B (Pseudomonas putida, UniProt Q88FP7)
T1 construct: gene zwfB
T1 sequence (Q88FP7 1-501): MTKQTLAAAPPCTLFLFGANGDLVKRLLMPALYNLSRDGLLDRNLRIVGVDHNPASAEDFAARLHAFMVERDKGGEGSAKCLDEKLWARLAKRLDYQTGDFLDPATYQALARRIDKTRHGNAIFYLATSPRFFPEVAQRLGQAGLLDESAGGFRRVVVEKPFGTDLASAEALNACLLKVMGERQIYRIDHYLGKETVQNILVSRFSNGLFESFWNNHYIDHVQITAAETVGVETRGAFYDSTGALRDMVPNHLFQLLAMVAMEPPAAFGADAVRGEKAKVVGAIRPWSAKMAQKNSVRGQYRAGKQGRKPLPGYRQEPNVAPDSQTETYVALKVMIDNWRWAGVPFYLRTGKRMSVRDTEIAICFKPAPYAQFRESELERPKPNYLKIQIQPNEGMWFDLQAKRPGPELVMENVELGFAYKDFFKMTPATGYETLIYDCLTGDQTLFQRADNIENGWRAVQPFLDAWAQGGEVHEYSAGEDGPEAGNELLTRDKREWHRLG

T2: G6PDH-C (Pseudomonas putida, UniProt Q88C32)
T2 construct: gene zwf
T2 sequence (Q88C32 1-485): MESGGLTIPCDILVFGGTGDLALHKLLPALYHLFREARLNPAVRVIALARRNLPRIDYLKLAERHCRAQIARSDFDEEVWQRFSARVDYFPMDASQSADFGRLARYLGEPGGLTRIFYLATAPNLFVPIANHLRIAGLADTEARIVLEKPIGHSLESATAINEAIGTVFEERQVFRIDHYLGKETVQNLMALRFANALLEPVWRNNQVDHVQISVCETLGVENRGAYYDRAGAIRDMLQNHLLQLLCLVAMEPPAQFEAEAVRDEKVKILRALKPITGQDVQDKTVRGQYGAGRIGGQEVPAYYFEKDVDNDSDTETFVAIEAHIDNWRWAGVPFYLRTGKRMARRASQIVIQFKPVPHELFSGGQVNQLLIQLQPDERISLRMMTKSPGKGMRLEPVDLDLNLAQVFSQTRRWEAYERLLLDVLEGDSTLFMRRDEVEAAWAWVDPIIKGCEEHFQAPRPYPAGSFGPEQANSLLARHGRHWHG


Tests used:
G6PDH-B = target: T1, G6PDH-B; assay: initial rates, NAD(P)H formation at […] nm, global fit (DYNAFIT), rapid-equilibrium random-ordered model; type: biochemical; conditions: buffer A (50 mM Tris-HCl, 5 mM NaCl, 5 mM MgCl2, 5% glycerol), pH 8.0, 30°C, G6P varied
G6PDH-C = target: T2, G6PDH-C; assay: as above; type: biochemical; conditions: buffer A (50 mM Tris-HCl, 5 mM NaCl, 5 mM MgCl2, 5% glycerol), pH 8.0, 30°C, G6P varied
purified protein [1] = substrate: NC(=O)c1ccc[n+]([C@@H]2O[C@H](COP(=O)(O)OP(=O)(O)OC[C@H]3O[C@@H](n4cnc5c(N)ncnc54)[C@H](O)[C@@H]3O)[C@@H](O)[C@H]2O)c1; assay: purified protein; type: biochemical, Pseudomonas putida; conditions: G6P co-substrate, buffer A (50 mM Tris-HCl, 5 mM NaCl, 5 mM MgCl2, 5% glycerol), pH 8.0, 30°C
purified protein [2] = substrate: NC(=O)c1ccc[n+]([C@@H]2O[C@H](COP(=O)(O)OP(=O)(O)OC[C@H]3O[C@@H](n4cnc5c(N)ncnc54)[C@H](OP(=O)(O)O)[C@@H]3O)[C@@H](O)[C@H]2O)c1; assay: purified protein; type: biochemical, Pseudomonas putida; conditions: G6P co-substrate, buffer A (50 mM Tris-HCl, 5 mM NaCl, 5 mM MgCl2, 5% glycerol), pH 8.0, 30°C
[3] = dissociation constant of NADP+ from free enzyme, read-out: NADP^+ / Ki
[4] = dissociation constant of NAD+ from free enzyme, read-out: NAD^+ / Ki

Molecule	Kd (G6PDH-B; [3]) [µM]	Kd (G6PDH-C; [3]) [mM]	Kd (G6PDH-B; [4]) [µM]	Kd (G6PDH-C; [4]) [mM]	Km (purified protein [1])	kcat (purified protein [1]) [s^–1]	Km (purified protein [2]) [µM]	kcat (purified protein [2]) [s^–1]
NC(=O)c1ccc[n+]([C@@H]2O[C@H](COP(=O)(O)OP(=O)(O)OC[C@H]3O[C@@H](n4cnc5c(N)ncnc54)[C@H](OP(=O)(O)O)[C@@H]3O)[C@@H](O)[C@H]2O)c1 [NADP^+]	790 ± 110	0.0092 ± 0.0019						
NC(=O)c1ccc[n+]([C@@H]2O[C@H](COP(=O)(O)OP(=O)(O)OC[C@H]3O[C@@H](n4cnc5c(N)ncnc54)[C@H](O)[C@@H]3O)[C@@H](O)[C@H]2O)c1 [NAD^+]			301 ± 48	5.8				
G6PDH-B (Pseudomonas putida KT2440) (protein) MTKQTLAAAPPCTLFLFGANGDLVKRLLMPALYNLSRDGLLDRNLRIVGVDHNPASAEDFAARLHAFMVERDKGGEGSAKCLDEKLWARLAKRLDYQTGDFLDPATYQALARRIDKTRHGNAIFYLATSPRFFPEVAQRLGQAGLLDESAGGFRRVVVEKPFGTDLASAEALNACLLKVMGERQIYRIDHYLGKETVQNILVSRFSNGLFESFWNNHYIDHVQITAAETVGVETRGAFYDSTGALRDMVPNHLFQLLAMVAMEPPAAFGADAVRGEKAKVVGAIRPWSAKMAQKNSVRGQYRAGKQGRKPLPGYRQEPNVAPDSQTETYVALKVMIDNWRWAGVPFYLRTGKRMSVRDTEIAICFKPAPYAQFRESELERPKPNYLKIQIQPNEGMWFDLQAKRPGPELVMENVELGFAYKDFFKMTPATGYETLIYDCLTGDQTLFQRADNIENGWRAVQPFLDAWAQGGEVHEYSAGEDGPEAGNELLTRDKREWHRLG					151 ± 7 µM	120 ± 1	165 ± 11	113 ± 1
G6PDH-C (Pseudomonas putida KT2440) (protein) MESGGLTIPCDILVFGGTGDLALHKLLPALYHLFREARLNPAVRVIALARRNLPRIDYLKLAERHCRAQIARSDFDEEVWQRFSARVDYFPMDASQSADFGRLARYLGEPGGLTRIFYLATAPNLFVPIANHLRIAGLADTEARIVLEKPIGHSLESATAINEAIGTVFEERQVFRIDHYLGKETVQNLMALRFANALLEPVWRNNQVDHVQISVCETLGVENRGAYYDRAGAIRDMLQNHLLQLLCLVAMEPPAQFEAEAVRDEKVKILRALKPITGQDVQDKTVRGQYGAGRIGGQEVPAYYFEKDVDNDSDTETFVAIEAHIDNWRWAGVPFYLRTGKRMARRASQIVIQFKPVPHELFSGGQVNQLLIQLQPDERISLRMMTKSPGKGMRLEPVDLDLNLAQVFSQTRRWEAYERLLLDVLEGDSTLFMRRDEVEAAWAWVDPIIKGCEEHFQAPRPYPAGSFGPEQANSLLARHGRHWHG					(9.5 ± 1.1)×10^3 μM	0.77 ± 0.04	3.2 ± 0.7	0.54 ± 0.02
